Reference: patent publication US20210301005A1

Legend:
[1] = molecular target: human TGFβ2, mature receptor-binding domain (human)
[2] = molecular target: human TGFβ3, mature dimeric form (human) (UniProt P10600)
[3] = molecular target: human TGFβ1, mature receptor-binding domain (human) (UniProt P01137)
[4] = molecular target: human TGFβ3, mature dimeric form (human) (UniProt P10600); remark: listed apart in the source

Chain of human TGFβ3, mature dimeric form (human) (P10600 301-412): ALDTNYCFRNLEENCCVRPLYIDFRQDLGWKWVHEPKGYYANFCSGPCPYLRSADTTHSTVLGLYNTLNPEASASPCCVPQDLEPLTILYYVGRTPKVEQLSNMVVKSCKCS
Chain of human TGFβ2, mature receptor-binding domain (human) (P09858 303-414 limits assumed): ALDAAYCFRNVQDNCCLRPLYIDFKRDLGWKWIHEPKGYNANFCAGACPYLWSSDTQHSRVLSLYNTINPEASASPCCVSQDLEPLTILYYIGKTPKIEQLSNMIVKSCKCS
Chain of human TGFβ1, mature receptor-binding domain (human) (P01137 279-390 limits assumed): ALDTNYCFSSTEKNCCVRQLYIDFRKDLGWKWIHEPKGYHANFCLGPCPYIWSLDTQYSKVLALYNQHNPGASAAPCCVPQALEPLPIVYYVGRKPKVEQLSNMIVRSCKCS

IC50 [1] [µM]	IC50 [2] [nM]	IC50 [3] [µM]	IC50 (read off the curve) [4] [nM]	Binder
12.4	2920	–	–	Fc-LAP3 (Fc fusion, not shown: a dimerising Fc or GST) LSTCTTLDFGHIKKKRVEAIRGQILSKLRLTSPPEPTVMTHVPYQVLALYNSTRELLEEMHGEREEGCTQENTESEYYAKEIHKFDMIQGLAEHNELAVCPKGITSKVFRFNVSSVEKNRTNLFRAEFRVLRVPNPSSKRNEQRIELFQILRPDEHIAKQRYIGGKNLPTRGTAEWLSFDVTDTVREWLLRRESNLGLEISIHCPCHTFQPNGDILENIHEVMEIKFKGVDNEDDHGRGDLGRLKKQKDHHNPHLILMMIPPHRLDNPGQGGQRKKR
0.548	525	10.1	0.6	Fc-LAP2 (Fc fusion, not shown: a dimerising Fc or GST) SLSTCSTLDMDQFMRKRIEAIRGQILSKLKLTSPPEDYPEPEEVPPEVISIYNSTRDLLQEKASRRAAACERERSDEEYYAKEVYKIDMPPFFPSENAIPPTFYRPYFRIVRFDVSAMEKNASNLVKAEFRVFRLQNPKARVPEQRIELYQILKSKDLTSPTQRYIDSKVVKTRAEGEWLSFDVTDAVHEWLHHKDRNLGFKISLHCPCCTFVPSNNYIIPNKSEELEARFAGIDGTSTYTSGDQKTIKSTRKKNSGKTPHLLLMLLPSYRLESQQTNRRKKR
